The target of test [1] is T1, osteoclastogenesis inhibitory factor (OCIF), recombinant, monomer or dimer type not specified at the place of … (human, UniProt O00300 22-401, 125I on tyrosine residues where used as 125I-labeled OCIF (Iodogen method)).
T1 construct: Secreted protein, about 60 kDa as monomer and 120 kDa as dimer; also called recombinant OCIF
T1 sequence (looked up): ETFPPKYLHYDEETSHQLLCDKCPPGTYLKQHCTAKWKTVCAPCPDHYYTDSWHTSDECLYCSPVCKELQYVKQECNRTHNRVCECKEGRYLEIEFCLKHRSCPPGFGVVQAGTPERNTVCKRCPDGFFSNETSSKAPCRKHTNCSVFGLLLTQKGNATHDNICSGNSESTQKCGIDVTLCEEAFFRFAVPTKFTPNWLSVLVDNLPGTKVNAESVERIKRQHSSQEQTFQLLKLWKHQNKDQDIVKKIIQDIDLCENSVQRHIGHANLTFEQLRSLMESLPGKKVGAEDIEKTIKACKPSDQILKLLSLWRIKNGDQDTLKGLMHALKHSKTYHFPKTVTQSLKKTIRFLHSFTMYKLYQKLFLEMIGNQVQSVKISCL
The test can be described thus: Scatchard plot of labeled OCIF on cell membrane (told in the general description).

The target in test [2] is T2, OCIF, monomer type (60 kDa) (human, UniProt O00300 22-401, limits assumed, 125I on tyrosine residues (Iodogen method)).
T2 construct: Monomer type of rOCIF, 60 kDa; also called monomer-form OCIF
T2 sequence (looked up): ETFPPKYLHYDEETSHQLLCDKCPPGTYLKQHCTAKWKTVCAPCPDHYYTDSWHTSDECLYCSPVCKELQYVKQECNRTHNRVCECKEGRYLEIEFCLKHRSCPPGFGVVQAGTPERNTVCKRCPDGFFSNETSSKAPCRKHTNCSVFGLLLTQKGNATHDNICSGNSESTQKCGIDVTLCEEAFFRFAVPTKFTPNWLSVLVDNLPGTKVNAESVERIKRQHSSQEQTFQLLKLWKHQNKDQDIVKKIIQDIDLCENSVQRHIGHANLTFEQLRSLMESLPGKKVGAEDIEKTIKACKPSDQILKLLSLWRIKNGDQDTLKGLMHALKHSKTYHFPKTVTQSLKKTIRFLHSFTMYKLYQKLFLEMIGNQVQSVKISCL
As to the kind of experiment: Scatchard plot of 125I-OCIF binding to ST2 cells (passage about 10) cultured with vitamin D3 and dexamethasone. As to the method:
Solutions for measuring non-specific binding were prepared by further adding 400-fold concentration of monomer-form OCIF to these solutions. […] The results were subjected to Scatchard Plot analysis to determine the dissociation constant of OCIF and OCIF-binding protein and the number (site) of OCIF-binding protein per a ST2 cell. […] Based on the finding in Example 5(1) that osteoclasts-formation supported by the ST2 cells with passage number about 40 was more extensive than that with passage number about 10, the number (the site) of the protein of the present invention expressed on the ST2 cell with a passage number about 40 was assessed.

Experimental findings from patent publication US7449185 (Daiichi Sankyo, dated 2008) are described below.

For orientation: Kd means the equilibrium constant for the complex coming apart.

B1: natural OCIF-binding protein (mouse OBM) on mouse osteoblastic stromal ST2 cells cultured with active-form vitamin D3 and dexamethasone (ligand)
chain: MRRASRDYGKYLRSSEEMGSGPGVPHEGPLHPAPSAPAPAPPPAASRSMFLALLGLGLGQVVCSIALFLYFRAQMDPNRISEDSTHCFYRILRLHENAGLQDSTLESEDTLPDSCRRMKQAFQGAVQKELQHIVGPQRFSGAPAMMEGSWLDVAQRGKPEAQPFAHLTINAASIPSGSHKVTLSSWYHDRGWAKISNMTLSNGKLRVNQDGFYYLYANICFRHHETSGSVPTDYLQLMVYVVKTSIKIPSSHNLMKGGSTKNWSGNSEFHFYSINVGGFFKLRAGEEISIQVSNPSLLDPDQDATYFGAFKVQDID
notes: also called the protein of the present invention; OBM on ST2 cells
Turning to B1, the Kd in test [1] was 0.1 to 0.5 nM; in test [2], 0.28 nM.
